The source of these data is the nanobody polyreactivity screen of Harvey et al. (2022).

The nature of this series: yeast display, Sf9 membrane polyspecificity reagent, FACS + sequencing; frameworks hold sequencing errors. Summed up:
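Nanobodies came from a synthetic yeast display library in Saccharomyces cerevisiae BJ5465, induced with galactose for 36–48 hours and stained for 1 hour at 4 °C with 10% biotinylated, detergent-solubilized Sf9 membrane reagent. Cells were enriched on streptavidin microbeads and then FACS-sorted, with low and high (top ~1%) gates set on anti-HA fluorescence for expression and streptavidin fluorescence for reagent binding. Each polyreactivity label reflects the gate a clone came from. Genes were amplified by colony PCR, sequenced by MiSeq 2 × 250 and filtered by CDR length.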
As for “QVQLVESGGGLLQAGGSLRLSCAASGFTFFIYAMGWYRQAPGKEREFVAAITGSGGSTYYADSVKGRFRISRDNPKNTVYLLMNSLKPEDTAVYYCNKLSYGRSGYWGQGTQVTVSS”, the “polyreactivity (PSR sort gate)” value is “high polyreactivity”.

Turning to “QVQLVESGGGLVQAGGSLRLSCAASGIIFDFYAMGWYRQAPGKERELVAAINSGSGSTYYADSVKGRFTISRDNAKNTVYLQMNSLKPEDTAVYYCAADGLSATLTWYSYDYWGQGTQVTVSS”, the “polyreactivity (PSR sort gate)” value is recorded as “low polyreactivity”.

Regarding “QVQLEESGGGLVQAGGSLRLSCAASGRIFYYYTMGWYRQAPGKERELVAAISWGGVNTDYADSVKGRFTISRDNAKNTVYLQMNSLKPEDTAVYYCAAGRWSVGTYDYWGQGTQVTVSS”, the “polyreactivity (PSR sort gate)” value is listed as “low polyreactivity”.

For the sequence “QVQLVESGGGLVQAGGSLRLSCAASGRTFGYYRMGWYRQAPGKERELVAAITGSGGSTYYADSVKGRFTISRDNAKNTVYLQMNSLKAEDTAVYYCAATYLSRWTLYDYWGQGTQVTVSS”, the “polyreactivity (PSR sort gate)” value is on record as “high polyreactivity”.

With “QVQLVESGGGLVQAGGSLRLSCAASGITFRGYARGWYRQAPGKERELVASITNTDSTYYADSVKGRFTISRDNAKNTVYLQMNSLKPEDTAVYYCAARRGRKYGYWGQGTQVTVSS”, the “polyreactivity (PSR sort gate)” value is “high polyreactivity”.

For “QVQLVESGGGLVQAGGSLRLSCAASGSTYWNAMGWYRQAPGKERELVAAITFRGGSTYADSVKGRFTISRDNAKNTVYLQMNSLKPEDTAVYYCAKASSHRWYNVRNRAGYDYWGQGTQVTVSS”, the “polyreactivity (PSR sort gate)” value was “high polyreactivity”.

“QVQLVESGGGLVQAGGSLRLSCAASGFIFGTYAMGWYRQAPGKERELVAAISVGGGSTYYADSVKGRFTISRDNAKNSVYLQMNSLKPEDTAVYYCNALYNDHFSWFSFGYWGQGTQVTVSS”: the “polyreactivity (PSR sort gate)” value was “low polyreactivity”.

“QVQLVESGGGLVQAGGSLRLSCAASGFIFKYYAMGWYRQAPGKERELVASISSYGSSTYYADSVKGRFTSSRDSAKNTVYLQLNSVKPEDTAVYYCAAPYNFWNFFDLIYVWDGYDYWGQGTQVTVSS”: the “polyreactivity (PSR sort gate)” value is listed as “low polyreactivity”.

For the sequence “QGQLVETGGGLVQAGGILRLSCAASGSIFGDYDMGWYRQDPGKERDLVAAITSSGGMTYYADSVKGRFTISRDNAKNTVYFQMNSLKPVDTAVYYCAAYGYGSKYRYTGYYYWGQGTQVTVSS”, the “polyreactivity (PSR sort gate)” value was “low polyreactivity”.

For the sequence “QVQLVESGGGLVQAGGSLRLSCAASGSIITGYAMGWYRQAPVKERELVAGINSGTSTNYADSVKGRFTISRDNAKNTVSLQMNSLKPEDTAVYYCAKTAERRHYGVYRFDYWGQGTQVTVSS”, the “polyreactivity (PSR sort gate)” value is “low polyreactivity”.

On to “QVQLVESGGGLVQAGGSLRLSCADSGVIFVGYAMGGYRQAHGKERELVASIDGRVGSTYYADSVKGRFTISRDNAKITVYLQMNSLKPEDTAVYYCAAGGRAVRIYWGYYRTSYDYWGQGTQVTVSS”, for which the “polyreactivity (PSR sort gate)” value is on record as “low polyreactivity”.

For the sequence “QVQLVESGGGVVQAGGSLRVRCAASGIIYFIDYAMGWYRQAPGKERELVAAITSGGSTNYADSVKGRFTISRDNAKYTVYLQKNRLKPEDTAVYYCAAYLYSGSQYYFWGQGTQVIVSS”, the “polyreactivity (PSR sort gate)” value is “high polyreactivity”.

As to “QVQLVESGGGLVQAGGSLRLSCAASGFIFRFYAMGWYRQAPGKERELVAGISSSGGSTYYADSVKGRFTISRDNAKNTVYLQMNSLKPEDTAVYYCNAKRSDQSSKTFNYWGQGTQVTVSS”, the “polyreactivity (PSR sort gate)” value is given as “low polyreactivity”.

Turning to “QVQRVDSRGGLVQAGGSLRLSCAASGRIFRPNAMGWYRQAHGKQRELVAAITSNGGRTYYADSVKGRFTISRDNAKYTVYLQMNSLKPEDTAVYYCNAAPFRSGDGYWGQGTQVTVSS”, the “polyreactivity (PSR sort gate)” value is “high polyreactivity”.

Turning to “QVQLVESGGGLVQAGGSLRLSCAASGRTFRIYAMGWYRQAPGKERELVAAISRSSTSTYYADSVKGRFTISRDNAKNTVYLQMNSLKPEDTAVYYCAAVVTVQYSQPYDHWGQGTQVTVSS”, the “polyreactivity (PSR sort gate)” value is listed as “high polyreactivity”.

For “QVQLVESGGGLVQAGGSLRLSCAASGSIFGRYAMGWYRQAPGKERELVASINWNSGSTYYADSVKGRFTISRDNAKNTVYLQMNSLKPEDTAVYYCAAAALGYYGYWGQGTQVTVSS”, the “polyreactivity (PSR sort gate)” value is given as “low polyreactivity”.

Consider “QVQLVESGGGLVQAGGSFRLSSAPSGSIFVVYAMGGYIQAPGKERELVAAITSGGSTYYADSVKGRFTISRDNAKNTVYLQMNSLKPEDTAVYYCATTYRDGVYELSTFDYWGQGTQVTVSS”, for which the “polyreactivity (PSR sort gate)” value is given as “low polyreactivity”.

Regarding “QVQLVESGGGLVQAGGSLRLSCAASGSIFAGNAMGWYRQPPGKERELVASISWRGGSTYYADSVKGRFTISRDNAKKTVYLQMNSLKPEDTAVYYCNADLVLFPLTWPYYYWGQGTQVTVSS”, the “polyreactivity (PSR sort gate)” value was “low polyreactivity”.

Turning to “QVQLVESGGGLVQAGGSLRLSCAASGSTFRINAMGWYRQAPGKERELVADINSGGNTTYADSVKGRFTISRDNAKNTVYFQMNSLKPEDTAVYYCAAAPVFDLWVFLLDYGYDYWGQGTQVTVSS”, the “polyreactivity (PSR sort gate)” value is “low polyreactivity”.

On to “QVQLVESVGGLDQAGGSLRLSCPASGRTFGKYAMGWYRQSPGKERELVARISRRGGTTYYADSVKGRFTISRDNAKNTVYLQLNSLKPEDTAVYYCNARRRDYRHWYDYWGQGTQVTVSS”, for which the “polyreactivity (PSR sort gate)” value was “high polyreactivity”.

For “QVQLVETGGGLVQAGGSLRLSCAASGSTFYKYGMGWYRPAPGKERELVAAISGSGDSTYYADSVKGRFTISRDNAKNTVYLQMNSLKPEDTAVSYCNAGPWWFLHEYDYWGQGTQVTVSS”, the “polyreactivity (PSR sort gate)” value is “low polyreactivity”.

Turning to “QVQLVESGGGLVQAGGSLRLSCAASRFTFSYYAMVWYRKAHVKERELVAAISWRGGTPYADSVKGRFTISRDNAKKTVYLQMNSLKPEDTAVYYCNTAYQVYWRGNYWGQGTQVTVSS”, the “polyreactivity (PSR sort gate)” value was “high polyreactivity”.

On to “QVQLVESGGGLVQAGGSLRLSCADSGFISGGNDMGWNRQAPGKEREFVAAIDNTGSTYYADSVKGRFTISRDNAKNTVYLQMNSLKPEDSAVYYCNAEVSEDYVDNDFWGQGTQVTVSS”, for which the “polyreactivity (PSR sort gate)” value was “low polyreactivity”.

Consider “QVQLQESGAGLVQAGGSLRLTCAASGSIFLFYTMGWYRQAPVKEREFVAGITLGTTTYNADSVKGRFTISRDNVKNTVYLQMNSLKPEDTAVYYCAVAVGHYTEFWYWGQGTQVTMSS”, for which the “polyreactivity (PSR sort gate)” value is listed as “high polyreactivity”.

For the sequence “QVQLVESGGGLVQAGGSLRLSCAASGSIFYSNAMGWYRQAPGKERELVAAISFTGGTTYYADSVKGRFTISRDNAKNTVYLQMNSLKPEDTAVYYCNKLYHHYYGYWGQGTQVTVSS”, the “polyreactivity (PSR sort gate)” value is listed as “high polyreactivity”.

On to “QVQLVESGGGLVQAGGSLRLSCSASGYIFSSNTMGWYRQAPGTERELVAGISGRTGRTYYADSVKGRFTISRDNAKNTVYLQMNSLKPEDTAVYYCARVPYQGYPRRRLSGYYYWGQGTQVTVSS”, for which the “polyreactivity (PSR sort gate)” value was “high polyreactivity”.

As for “QVQLLESGGGLVQAGGSLRLSCAASGRIFKFNAMGWYRQAPGKERDLVAAISKRGGSTYYADSVKGRFTISRDNAKNTVYLQMISLKPEDTAVYYCAADRSPYGGDYDYWGQGTQVTVSS”, the “polyreactivity (PSR sort gate)” value was “high polyreactivity”.

As to “QVQLVESGGGLVQAGGSLRLSCAASGSNYRFYAMGWYRQAPGKERELVATISSSGGTTYYADSVKVRITISRDNAKNNVFLQMNSLKPEDTAVYYCAKDAFGWGRVYYYRSGYWGQGTQVTVSS”, the “polyreactivity (PSR sort gate)” value is listed as “high polyreactivity”.

Take “QVQLVESGGGLVQAGGSLRLSCAASGRTFYTYAMGWYRQAPGKESELVATIRWSGGSTRYADSVKGRFTISRDYAKNTVYLQMNSLKPEDTAVYYCAADNYYRRKYKYDYWGQGNQVTVSS”: the “polyreactivity (PSR sort gate)” value was “high polyreactivity”.

As to “QVQLVESGGGLVQAGGSLRLSCAASGSIFYGNAMGWYRQAPGKERELVAAIDGTGASTYYADSVKGRFTISRDNAKNTVYLKMNSLKPEDTAVYYCNKALTSKDYPVRTVERDYWGQGTQVTVSS”, the “polyreactivity (PSR sort gate)” value is “low polyreactivity”.

Take “QVQLVESGGGLVQAGGSLRLSCAASGRIFGYYAMGWYRQAPGKERELVAAIYSGGSTYYADSVKGRFTISRDNAKNTVYLQMNSLKPEDTAVYYCAAYYYGWYTPSQSPKYDYWGQGTQVTVSS”: the “polyreactivity (PSR sort gate)” value is given as “high polyreactivity”.

Consider “QVQLVESGGGLVQAGGSLRLSCAASGFTFGWYAMGWYRPAPGKERELVAAISRSGGSTYYADSVKGRFTISRDTAKNTVYLQMNSLKPEDTAVYYCAATYPQGKYTYGRSYDYWGQGTQVTVSS”, for which the “polyreactivity (PSR sort gate)” value is recorded as “high polyreactivity”.

Turning to “QVQLVESGGGLVQAGGSLRLSCAPSGRTFSVNDMGWYRQAPGKERELVAAISFSGGSTYYADSVKGRFTISRDNAKNTVYLQMNSLKPEDTAVYYCAAEAYPSWFYVITGFGIYDYWGQGTQVTVSS”, the “polyreactivity (PSR sort gate)” value is “high polyreactivity”.

Turning to “QVQLVESGGGLVQAGGSLRLSCAASGFIFIGNTMGWYRQAPGKDRELVAAIRWSGGSTYYADSVKGRFTISRDNAKNTVYLQMNSLKPEDTAVYYCAARRWSKTRYYYWGQGTQVTVSS”, the “polyreactivity (PSR sort gate)” value is on record as “high polyreactivity”.

Regarding “QVQLVESGGGLVQAGGSLRLSCAASGSIFSIYAMGWSRQAPGTERELVATITRNSGRTYYADSVKGRFTISRDNAKNTVYLQMNSLKPEDTAVYYCAASVKIISYLVHSEFLGGELDYWGQGTQVTVSS”, the “polyreactivity (PSR sort gate)” value is recorded as “low polyreactivity”.

Regarding “QVQLVESGGCLVQAGGSLRLSCAASGGIFPGNAMGWYRQAPGKERELVATISYSGGSTYYADSVKGRFTISRDNAKNTVYLQMNSLKPEDTAVYYCAARGYKPTRSRRTEYGYWGQGTQVTVSS”, the “polyreactivity (PSR sort gate)” value is “high polyreactivity”.

In the case of “QVQLVESGGGLVQAGGSLRLSCAASGSTFRYNALGWYRQAPGKERELVAAINYRGGSTYYADSVKGRFTISRDNAKNTVYLQMNSLKPEDTAVYYCNAVLPLAKYEYDSWGHGTQVTVSS”, the “polyreactivity (PSR sort gate)” value is “high polyreactivity”.

Take “QVEHVESGGGLVQAGGSLRLSCAASGSIIVDNAMGWSRQAPGKDRELVAAISVGGGRTYYADSVKGRFTISRDNAKNTVYLQMNSLKPEDTAVYYCNRVPTRGPHGVWFGYCGQGTQVTVSS”: the “polyreactivity (PSR sort gate)” value is listed as “high polyreactivity”.

For the sequence “QVQLVESGGGLVQAGGSLRLSCAASGRIIAKYAMGWYRQAPGKERELVAAINWGGGSTYYADSVKGRFTISRDNAKITVYLQMNSLKPEDTAVYYCNRTPRSKGNYWGQGTQVTVSS”, the “polyreactivity (PSR sort gate)” value is recorded as “high polyreactivity”.

On to “QVQLVESGGGLVQAGGSLSLSCAASGSIFFYAMGGYRPAPGKERELVADITYTGGSKYADSVKGRFTISRDNAKYTVYLQMNSLKPEDTAVYSCAKLDGGLFDYWGHGTQVTVSS”, for which the “polyreactivity (PSR sort gate)” value is recorded as “low polyreactivity”.
